What was measured:
[1] = molecular target: T1, histidyl-tRNA synthetase (HRS), recombinant (UniProt P12081 1-509, limits assumed); experiment: Luminex multiplex bead assay, antigen coupled to beads, anti-HA-biotin and SA-PE detection
T1 sequence (looked up): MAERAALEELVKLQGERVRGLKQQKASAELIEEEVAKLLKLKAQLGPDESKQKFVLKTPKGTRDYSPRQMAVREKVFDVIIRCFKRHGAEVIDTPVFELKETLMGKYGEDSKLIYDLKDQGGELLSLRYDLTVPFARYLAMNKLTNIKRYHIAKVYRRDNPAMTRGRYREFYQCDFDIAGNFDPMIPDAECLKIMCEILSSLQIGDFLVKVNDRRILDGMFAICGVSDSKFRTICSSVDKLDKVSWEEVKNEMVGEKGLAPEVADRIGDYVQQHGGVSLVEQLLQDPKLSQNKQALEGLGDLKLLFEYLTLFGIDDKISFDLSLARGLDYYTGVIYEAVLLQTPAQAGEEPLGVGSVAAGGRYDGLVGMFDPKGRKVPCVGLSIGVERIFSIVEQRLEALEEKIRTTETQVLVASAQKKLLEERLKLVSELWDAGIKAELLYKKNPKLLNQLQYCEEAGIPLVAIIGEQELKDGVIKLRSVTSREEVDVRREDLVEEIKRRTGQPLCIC
Procedure: (§1) Then, 50 mg/ml S—NHS (N-hydroxysulfosuccinimide) and 50 mg/ml EDAC (1-ethy-3-[3-dimethylaminopropyl]carbodiimide) were added, followed by activation at room temperature for 20 minutes. The activated beads were washed with PBS, and then 10 μg of respective recombinant ARS antigens, that is, WRS, HRS, NRS, KRS, SRS, YRS, GRS, and AIMP1(p43), which were purified at purity of 90% or higher, were added, followed by reaction at room temperature for 2 hours. The beads linked to the respective ARS antigens were washed. two times with PBS, and then a blocking buffer was added to perform a reaction at room temperature for 30 minutes, thereby blocking unbound residues. Then, the resultant beads were washed two times with PBS, and again dispersed in 100 μl of PBS, and kept in tubes in which the light was blocked. The number of beads bound was measured and recorded by hemocytometer.
(§2) The antibody of the present invention extracted from the periplasm was first diluted with a specimen diluent (PBST+2% BSA) to 1:400. Then, the diluted antibody was diluted 2-fold serially with a specimen diluent, and dispensed in 96 well filter plate at 50 μl for each well. Only the specimen diluent was added in the blank well without the antibody. The ARS-bound beads were put in bead mix tubes to 2000 beads per well, respectively, and the specimen diluent was put with a volume such that 50 μl of the specimen diluent could be put per well. The bead mix solution was well mixed and dispensed in each well, followed by reaction in dark room for 1 hour. After the reaction was ended, the resultant solution was washed three times with PBS (200 μl/well) using a vacuum manifold, 50 μl Anti-(HA)-biotin secondary antibody was added, followed by further reaction in dark room for 1 hour. The beads binding to the secondary antibody were washed three times with PBS, and then, for fluorescent labeling, SA-PE (Streptavidin-Phycoerythrin) was added to 2 μg/ml, followed by reaction in dark room for 30 minutes, washing three times with PBS, and again dispersion in 100 μl of PBS. The fluorescent intensity of the fluorescence-labeled beads was measured using Bio-Plex (Luminex) 200 equipment and Bio-Plex manager program, and the measurement values were analyzed to investigate the binding of the antibody to each ARS.

[2] = molecular target: T2, tryptophanyl-tRNA synthetase (WRS), recombinant (UniProt P23381 1-471, limits assumed); experiment: as above
T2 sequence (looked up): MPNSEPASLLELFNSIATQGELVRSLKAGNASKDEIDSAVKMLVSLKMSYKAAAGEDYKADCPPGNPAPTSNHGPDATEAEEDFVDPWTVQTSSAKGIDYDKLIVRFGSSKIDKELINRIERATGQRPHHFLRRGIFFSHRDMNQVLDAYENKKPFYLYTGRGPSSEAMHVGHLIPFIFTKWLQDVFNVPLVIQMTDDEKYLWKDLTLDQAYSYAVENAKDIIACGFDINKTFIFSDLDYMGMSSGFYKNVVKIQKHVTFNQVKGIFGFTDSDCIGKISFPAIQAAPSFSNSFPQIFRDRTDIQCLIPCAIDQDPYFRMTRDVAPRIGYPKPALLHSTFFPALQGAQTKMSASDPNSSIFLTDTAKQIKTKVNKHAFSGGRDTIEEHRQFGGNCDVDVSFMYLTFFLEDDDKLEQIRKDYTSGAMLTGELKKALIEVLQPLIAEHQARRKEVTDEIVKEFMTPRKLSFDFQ
Procedure: as §1, §2

[3] = molecular target: T3, glycyl-tRNA synthetase (GRS), recombinant (UniProt P41250 55-739, limits assumed); experiment: as above
T3 sequence (looked up): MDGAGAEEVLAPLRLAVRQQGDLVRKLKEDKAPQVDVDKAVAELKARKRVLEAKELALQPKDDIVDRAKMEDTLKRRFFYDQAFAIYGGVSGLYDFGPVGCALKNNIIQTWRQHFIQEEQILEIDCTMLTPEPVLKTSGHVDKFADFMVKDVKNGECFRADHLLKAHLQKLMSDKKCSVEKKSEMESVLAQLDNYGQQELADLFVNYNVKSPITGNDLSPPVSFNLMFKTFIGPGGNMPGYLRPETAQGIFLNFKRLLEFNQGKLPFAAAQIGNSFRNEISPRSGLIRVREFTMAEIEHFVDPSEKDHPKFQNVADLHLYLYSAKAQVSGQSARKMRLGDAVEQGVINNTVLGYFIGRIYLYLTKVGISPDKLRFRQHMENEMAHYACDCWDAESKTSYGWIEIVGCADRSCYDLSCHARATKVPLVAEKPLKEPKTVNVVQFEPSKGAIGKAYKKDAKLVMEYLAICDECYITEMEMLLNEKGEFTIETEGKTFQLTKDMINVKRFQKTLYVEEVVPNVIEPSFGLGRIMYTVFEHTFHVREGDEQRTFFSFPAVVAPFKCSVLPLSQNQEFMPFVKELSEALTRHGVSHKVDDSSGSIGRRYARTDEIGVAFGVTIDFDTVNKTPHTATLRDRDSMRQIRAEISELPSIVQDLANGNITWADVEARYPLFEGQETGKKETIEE
Procedure: as §1, §2

[4] = molecular target: T4, tyrosyl-tRNA synthetase (YRS), recombinant (UniProt P54577 1-528, limits assumed); experiment: as above
T4 sequence (looked up): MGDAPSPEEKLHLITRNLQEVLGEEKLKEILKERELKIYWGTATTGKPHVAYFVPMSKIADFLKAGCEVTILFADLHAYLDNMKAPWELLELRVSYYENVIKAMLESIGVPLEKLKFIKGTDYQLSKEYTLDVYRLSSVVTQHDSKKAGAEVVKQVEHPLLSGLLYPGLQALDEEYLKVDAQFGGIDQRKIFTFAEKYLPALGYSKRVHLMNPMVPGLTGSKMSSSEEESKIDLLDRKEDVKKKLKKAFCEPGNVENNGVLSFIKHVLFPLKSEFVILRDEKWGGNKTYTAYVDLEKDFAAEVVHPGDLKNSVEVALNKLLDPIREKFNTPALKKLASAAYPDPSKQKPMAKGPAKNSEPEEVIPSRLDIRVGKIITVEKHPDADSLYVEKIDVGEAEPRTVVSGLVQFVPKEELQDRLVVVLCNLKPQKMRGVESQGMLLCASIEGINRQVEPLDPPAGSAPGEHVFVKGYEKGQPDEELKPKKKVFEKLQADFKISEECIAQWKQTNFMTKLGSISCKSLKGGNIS
Procedure: as §1, §2

[5] = molecular target: seryl-tRNA synthetase (SRS), recombinant (UniProt P49591 1-514, limits assumed); experiment: as above
Procedure: as §1, §2

[6] = molecular target: T5, aminoacyl-tRNA-synthetase-interacting multifunctional protein 1 (AIMP1), recombinant (UniProt Q12904 1-312, limits assumed); experiment: as above
T5 construct: also called AIMP1(p43); p43
T5 sequence (looked up): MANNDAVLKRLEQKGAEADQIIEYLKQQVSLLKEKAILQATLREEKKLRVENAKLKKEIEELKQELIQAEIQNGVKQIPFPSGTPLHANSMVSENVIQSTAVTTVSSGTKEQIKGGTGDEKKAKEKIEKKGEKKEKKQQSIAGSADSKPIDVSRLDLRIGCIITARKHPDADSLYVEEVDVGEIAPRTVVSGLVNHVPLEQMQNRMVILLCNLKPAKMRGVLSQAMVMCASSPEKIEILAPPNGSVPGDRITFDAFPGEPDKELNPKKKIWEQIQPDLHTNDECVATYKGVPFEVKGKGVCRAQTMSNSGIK
Procedure: as §1, §2

[7] = molecular target: T6, asparaginyl-tRNA synthetase (NRS), recombinant (UniProt O43776 1-548, limits assumed); experiment: as above
T6 sequence (looked up): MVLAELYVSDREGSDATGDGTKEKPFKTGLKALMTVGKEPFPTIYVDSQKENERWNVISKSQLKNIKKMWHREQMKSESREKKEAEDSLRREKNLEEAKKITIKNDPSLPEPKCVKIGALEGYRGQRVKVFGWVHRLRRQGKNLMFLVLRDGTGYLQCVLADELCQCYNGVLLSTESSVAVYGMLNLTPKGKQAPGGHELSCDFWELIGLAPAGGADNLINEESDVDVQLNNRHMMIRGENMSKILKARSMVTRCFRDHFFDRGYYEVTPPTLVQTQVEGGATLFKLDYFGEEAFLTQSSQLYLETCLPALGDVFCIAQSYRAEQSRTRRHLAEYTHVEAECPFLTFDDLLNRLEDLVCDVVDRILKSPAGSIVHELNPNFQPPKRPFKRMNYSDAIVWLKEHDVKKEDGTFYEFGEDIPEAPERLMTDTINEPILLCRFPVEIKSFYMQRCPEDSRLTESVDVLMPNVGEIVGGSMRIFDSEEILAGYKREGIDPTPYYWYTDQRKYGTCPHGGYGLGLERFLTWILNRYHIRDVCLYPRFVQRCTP
Procedure: as §1, §2

[8] = molecular target: T7, lysyl-tRNA synthetase (KRS), recombinant (human, UniProt Q15046 1-597, limits assumed); experiment: SPR (ProteOn XPR36), KRS amine-coupled to GLC chip, purified scFv injected at 500-30 nM, 25 C
T7 construct: the construct is not described; also called KRS antigen; recombinant KRS standard material
Procedure: The binding affinity of the antibody of the present invention to KRS antigen was measured using the ProteOnTMXPR36 SPR (surface plasmon resonance) biosensor (Bio-Rad).
Specifically, approximately 10 μg/ml KRS antigen was immobilized at about 2,000-4,000 response units to GLC chip (Bio-Rad 6×6 sensor chip, Compact capacity amine coupling for protein-protein interactions) according to the manufacturer's manual, and then 30 μl of the purified scFv antibody of the present invention, which was diluted with PBS to various concentrations (500-30 nM), was injected to the chip at a rate of 50 μl/min at 25° C. to quantify the interaction with the antigen. The surface of the chip was regenerated with 0.85% phosphoric acid. The association rate and dissociation rate were calculated using the ProteOn Manager software, and the equilibrium dissociation constant (KD) was calculated as a ratio of dissociation rate/association rate.

T7 sequence (Q15046 whole entry): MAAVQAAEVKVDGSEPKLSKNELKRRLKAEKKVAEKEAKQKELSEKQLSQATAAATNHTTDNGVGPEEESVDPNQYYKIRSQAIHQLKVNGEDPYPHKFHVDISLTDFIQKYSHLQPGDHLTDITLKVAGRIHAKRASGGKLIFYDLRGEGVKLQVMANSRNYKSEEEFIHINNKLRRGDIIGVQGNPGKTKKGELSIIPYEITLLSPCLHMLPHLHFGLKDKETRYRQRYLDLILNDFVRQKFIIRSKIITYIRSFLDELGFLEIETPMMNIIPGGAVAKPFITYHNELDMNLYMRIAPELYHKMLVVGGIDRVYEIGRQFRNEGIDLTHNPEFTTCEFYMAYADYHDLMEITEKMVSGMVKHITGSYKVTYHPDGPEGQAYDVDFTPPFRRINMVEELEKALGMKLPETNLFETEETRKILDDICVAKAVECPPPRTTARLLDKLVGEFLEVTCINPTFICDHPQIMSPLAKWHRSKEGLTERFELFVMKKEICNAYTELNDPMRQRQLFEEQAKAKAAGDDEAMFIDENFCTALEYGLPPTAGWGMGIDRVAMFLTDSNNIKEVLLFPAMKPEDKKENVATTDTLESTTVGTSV
Sequence of seryl-tRNA synthetase (SRS), recombinant (P49591 whole entry): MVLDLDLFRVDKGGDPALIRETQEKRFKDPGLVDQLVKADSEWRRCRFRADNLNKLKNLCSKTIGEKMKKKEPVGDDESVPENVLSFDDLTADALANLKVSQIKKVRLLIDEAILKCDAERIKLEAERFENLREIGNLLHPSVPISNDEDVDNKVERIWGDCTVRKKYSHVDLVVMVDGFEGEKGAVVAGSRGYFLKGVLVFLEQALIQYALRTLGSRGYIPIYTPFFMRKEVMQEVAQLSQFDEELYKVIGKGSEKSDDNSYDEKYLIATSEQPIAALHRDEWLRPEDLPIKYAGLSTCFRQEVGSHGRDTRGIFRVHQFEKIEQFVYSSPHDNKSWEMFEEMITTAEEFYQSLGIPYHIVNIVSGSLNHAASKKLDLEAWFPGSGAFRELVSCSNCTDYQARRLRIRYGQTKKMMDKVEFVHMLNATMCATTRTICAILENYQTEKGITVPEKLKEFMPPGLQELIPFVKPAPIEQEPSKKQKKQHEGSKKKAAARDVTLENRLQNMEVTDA

B1: anti-KRS scFv Biocon-K1 (scFv)
scFv: EVQLLESGGGLVQPGGSLRLSCAASGFTFSNYAMSWVRQAPGKGLEWVSGISPSSGDTYYADSVKGRFTISRDNSKNTLYLQMNSLRAEDTAVYYCAKGVWWYHPLLFDYWGQGTLVTVSSGGGGSGGGGSGGGGSQSVLTQPPSASGTPGQRVTISCSGSSSNIGNNTVSWYQQLPGTAPKLLIYANSKRPSGVPDRFSGSKSGTSASLAISGLRSEDEADYYCGAWDSSLSGYVFGGGTKLTVL
notes: Single clone from a human VH3-23/VL1g phage scFv library, expressed in the E. coli periplasm; Purified scFv was used in SPR and ELISA, periplasmic extract in western blot and Luminex assay; also called antibody of the present invention; anti-KRS scFv antibody; not shown: His and HA tags of the pComb3X vector are implied by Ni-NTA purification and anti-HA detection
**Q.** Does B1 bind [1]?
**A.** Result: no binding

**Q.** Does B1 bind [2]?
**A.** Result: no binding

**Q.** Does B1 bind [3]?
**A.** Result: no binding

**Q.** Does B1 bind [4]?
**A.** Result: no binding

**Q.** Does B1 bind [5]?
**A.** Result: no binding

**Q.** Does B1 bind [6]?
**A.** Result: no binding

**Q.** Does B1 bind [7]?
**A.** Result: no binding

**Q.** What about the Kd [8] of the same binder?
**A.** The Kd was 100 nM.
